Measurements: patent US20150132305A1 (ADHERON THERAPEUTICS, published 2015)
Substitutions are numbered along the chain they refer to. Numbers in names are those of the source. No end group written: not given here.

T1: recombinant his-tagged human Cad-11 (R&D Systems) (human, UniProt P55287 54-617)
T1 construct: bought; also called rhCad-11; recombinant human Cad-11; not shown: his tag
T1 sequence: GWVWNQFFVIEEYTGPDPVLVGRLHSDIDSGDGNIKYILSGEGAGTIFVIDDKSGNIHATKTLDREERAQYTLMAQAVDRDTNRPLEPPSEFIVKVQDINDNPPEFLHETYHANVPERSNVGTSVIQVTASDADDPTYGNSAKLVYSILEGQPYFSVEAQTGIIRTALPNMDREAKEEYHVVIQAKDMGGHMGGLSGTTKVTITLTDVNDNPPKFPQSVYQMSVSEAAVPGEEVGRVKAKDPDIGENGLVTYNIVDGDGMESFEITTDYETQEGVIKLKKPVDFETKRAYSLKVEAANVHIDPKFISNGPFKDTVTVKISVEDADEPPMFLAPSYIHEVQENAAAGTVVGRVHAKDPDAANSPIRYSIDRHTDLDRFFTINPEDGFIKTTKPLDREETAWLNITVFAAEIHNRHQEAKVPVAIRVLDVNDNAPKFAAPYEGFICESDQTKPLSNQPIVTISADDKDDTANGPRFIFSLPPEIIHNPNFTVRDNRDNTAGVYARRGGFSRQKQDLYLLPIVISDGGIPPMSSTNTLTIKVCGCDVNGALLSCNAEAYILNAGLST

T2: recombinant Cad-11 EC1 human IgG1 fusion protein (R&D Systems Cat. No. 1790-CA-050) (human, UniProt P55287 54-617, limits assumed)
T2 construct: bought; also called recombinant human Cad-11 EC1; recombinant human Cad-11 fusion protein; not shown: human IgG1 part
T2 sequence: T1 sequence

B1: SDP051 humanized anti-Cad-11 EC1 antibody (Vκ1/VH5) (antibody, IgG4, V domains shown)
VH: EVQLVQSGAEVKKPGASVKVSCKASGYSFTGYFMNWVRQAPGQGLEWIGRINPYTGDTFYNQKFKGRVTITVDKSTSTAYMELSSLRSEDTAVYYCGRLGSRYWYFDVWGQGTTVTVSS
VL: DVLMTQTPLSSPVTLGQPASISCRSSQSIIHSNGNTYLEWYLQKPGQSPQLLIYKVSNRFSGVPDRFTGSGSGTDFTLKISRVEAEDVGVYYCFQGSHVPWTFGQGTKLEIK
notes: humanized IgG4 (S241P), kappa
B2: SDP071 humanized anti-Cad-11 EC1 antibody (Vκ2/VH2) (antibody, IgG4, V domains shown)
VH: B1 VH with V20I, R38K, V68A, I70L
VL: B1 VL with T68S
notes: humanized IgG4 (S241P), kappa
B3: SDP061 humanized anti-Cad-11 EC1 antibody (Vκ2/VH1) (antibody, IgG4, V domains shown)
VH: EVQLVQSGPELKKPGASVKISCKASGYSFTGYFMNWVKQAHGQGLEWIGRINPYTGDTFYNQKFKGRATLTVDKSSSTAYMELVSLSSEDSAVYYCGRLGSRYWYFDVWGQGTTVTVSS
VL: B1 VL with T68S
notes: humanized IgG4 (S241P), kappa
B4: Cad-9 37-mer peptide linked to BSA (peptide, UniProt Q9ULB4 54-90, looked up)
peptide: GWMWNQFFLLEEYTGTDTQYVGKLHTDQDKGDGNLKY
modifications: also: linked to BSA
notes: also called Cad-9 antigen; Cad-9 peptide
B5: Cad-7 37-mer peptide linked to BSA (peptide, UniProt Q9ULB5 48-84, looked up)
peptide: SWVWNQFFVLEEYMGSDPLYVGKLHSDVDKGDGSIKY
modifications: also: linked to BSA
notes: also called Cad-7 antigen; Cad-7 peptide

Columns and labels:
[1] = biological target: T1, recombinant his-tagged human Cad-11 …; assay: SPR, rhCad-11 immobilized, SDP051 as analyte, 2-state reaction model
Experimental: (§1) To determine the affinity of SDP051 for recombinant his-tagged human Cad-11, rhCad-11 (R&D Systems) was immobilized to the chip at a single concentration, high resolution kinetics were determined for SDP051, and a 2-state reaction binding model was successfully fitted to the kinetic data.
(§2) Kinetic data were obtained at a flow rate of 40 μL/min to minimize any potential mass transfer effects. An analyte concentration series ranging from 12.5 nM to 0.195 nM was prepared by serial dilution. Two repeats of the blank (no mAb) and the 3.125 nM (first and last cycle) concentration of the analyte were programmed into the kinetic runs in order to check the stability of both the surface and analyte over the kinetic cycles. The SDP051 was injected over the Fcs for 360 seconds, long enough to observe the curvature in association phase.

[2] = biological target: T1, recombinant his-tagged human Cad-11 …; assay: SPR, rhCad-11 immobilized, SDP051 as analyte, 2-state reaction model; ka1
Experimental: as §1, §2

[3] = biological target: T1, recombinant his-tagged human Cad-11 …; assay: SPR, rhCad-11 immobilized, SDP051 as analyte, 2-state reaction model; kd1
Experimental: as §1, §2

[4] = biological target: B5; assay: ELISA, BSA-coupled 37-mer cadherin peptide coated at 500 ng/ml, A450
Experimental: (§3) REACTI-BIND™ plates (ThermoScientific) were coated with 500 ng/ml of the BSA coupled cadherin 37-mer peptide (NE peptide) corresponding to Cadherins-7, -8, -9, -11, -18, -20, and -24 in 0.05% TWEEN® detergent (EMD, product code 9480) in PBS (pH 7.2) (Gibco(Invitrogen), #20012) at 100 μl volume/well for overnight at 4° C. The peptide containing solution was removed from the well and the plate blocked with a 2% bovine serum albumin (BSA) in PBS, 200 μl volume/well, for 2 h at 22° C. The plate was then washed twice with 200 μl/well of PBS-TWEEN® detergent 0.05% at 22° C. and blotted dry. A dilution series from 5 μg/ml to 8 ng/ml in a volume of 100 μl/well of each the humanized anti-Cad-11 antibodies were incubated in the petide coated wells and incubated at 22° C. for 1 hr. Antibody solution was removed from the wells and the plate washed twice with 200 μl/well of 0.05% TWEEN® detergent-PBS at 22° C. and blotted dry. The goat-anti mouse IgG (Pierce #31432) was added to each well to plate at a 1:1000 dilution, 100 μl/well and incubate at 22° C. for 30 min. The secondary antibody solution was removed and the plate washed twice with 200 μl/well of 0.05% TWEEN® detergent-PBS at 22° C. and blotted dry. The reaction was developed by adding 100 μl/well tetramethylbenzidine (TMB) reagent IgG (Pierce #34022, 1 step Turbo TMB-ELISA) to plate and developed at 22° C. for 5 min.

[5] = biological target: B4; assay: as above
Experimental: as §3

[6] = biological target: T2, recombinant Cad-11 EC1 human IgG1 …; assay: competition ELISA on coated recombinant human Cad-11 EC1 fusion protein against biotinylated SYN0012 (0.1 µg/ml)
Experimental: (§4) The binding of the purified humanized composite variant antibodies (SDP011 to SDP151) to a recombinant Cad-11 EC1 human IgG1 fusion protein was assessed in a competition binding ELISA. A dilution series from 5 μg/ml to 0.0022 μg/ml of the humanized or control (SYN0012/H1M1) antibodies was premixed with a constant concentration of biotinylated murine anti-Cad-11 antibody, SYN0012/H1M1 (0.1 μg/ml, final concentration), before incubating for 1 hour at room temperature on a NUNC-IIMMUNO™ MAXISORP™ 96 well flat bottom microtitre plate (Fisher Cat. No. DIS-971-030J) pre-coated with 0.25 μg/ml recombinant human Cad-11 EC1 (R&D Systems Cat. No. 1790-CA-050) diluted in PBS. The binding of the biotinylated mAb was detected with streptavidin-HRP (Sigma Cat. No. 55512) and tetramethylbenzidine (TMB) substrate (Invitrogen Cat. No. 00-2023).
(§5) All of the humanized anti-Cad-11 antibodies efficiently competed with SYN0012 for binding to the Cad-11 fusion protein (FIGS. 38A to C). […] The curves were used to calculate IC50 values for each antibody and these were normalized to the IC50 of SYN0012, which was included on each ELISA plate so that comparisons between plates could be made (Table 3). The expression levels of each cell line and the calculated isoelectric point (pI) of each antibody are also shown (Table 3).

[7] = biological target: T2, recombinant Cad-11 EC1 human IgG1 …; assay: competition ELISA against biotinylated SYN0012/H1M1 (competitor) on coated fusion protein; text says values are normalised to the IC50 of SYN0012
Experimental: as §4, §5
The relative IC50 was calculated by dividing the value for the test antibody by that of SYN0012. Antibody expression levels given are for static cultures in T flasks. PI are calculated.

[8] = biological target: B1; assay: flow cytometry blocking assay: peptide titrated with SDP 051 at 0.5 ug/ml on Cad-11 expressing 431D cells; blocked: binding of SDP051 to cell-surface Cad-11; MFI
Experimental: Cells were the stained on ice for 45 minutes with increasing concentration of either the 37-mer Cad-11 peptide or Cad-7, Cad-8, Cad-9, Cad-18, Cad-20, or Cad-24 peptides with […] SDP051. After staining the cells were washed twice with Hanks balanced salt solution (HBSS) containing 1% fetal bovine solution (FBS), resuspended and then stained with a 100 μl of goat anti-mouse IgG-PE (100× dilution) on ice for 30′ protected from light. After staining the cells with the secondary agent, cells were washed twice with HBSS with 1% FBS, resuspended and fixed in 200 μl of 2% formaldehyde in HBSS with 1% FBS and then analyzed with a BD FACSCALIBUR™ machine.

## B1
[1]
  Kd: 0.379 nM
[2]
  kon: 613000 M⁻¹ s⁻¹
[3]
  koff: 0.0043 s⁻¹
[4]
  binding result: no binding (tested: 5000 ng/ml)
[5]
  binding result: no binding (tested: 5000 ng/ml)
[6]
  IC50 (read off the curve): ~0.2 µg/mL
[7]
  IC50: 0.99 µg/mL

## B2
[5]
  binding result: no binding (tested: 5000 ng/ml)
[7]
  IC50: 0.33 µg/mL

## B3
[5]
  binding result: no binding (tested: 5000 ng/ml)
[7]
  IC50: 0.47 µg/mL

## B4
[8]
  binding result: no binding (tested: about 80000 ng/ml)

## B5
[8]
  binding result: no binding (tested: 3000 ng/ml)
